Target: BLM, endogenous, P54132
Test: PLA (α-Flag + α-BLM)
Conditions: chain shown with the change, U2OS cells, 2 h, read off a plot

B1: Flag-tagged GNL3 (Flag-GNL3), wild type, Q9BVP2 143VVLEVL149 to 143VAAEAL149 (SIMm) (protein)
chain: MKRPKLKKASKRMTCHKRYKIQKKVREHHRKLRKEAKKRGHKKPRKDPGVPNSAPFKEALLREAELRKQRLEELKQQQKLDRQKELEKKRKLETNPDIKPSNVEPMEKEFGLCKTENKAKSGKQNSKKLYCQELKKVIEASDVAAEALDARDPLGCRCPQVEEAIVQSGQKKLVLILNKSDLVPKENLESWLNYLKKELPTVVFRASTKPKDKGKITKRVKAKKNAAPFRSEVCFGKEGLWKLLGGFQETCSKAIRVGVIGFPNVGKSSIINSLKQEQMCNVGVSMGLTRSMQVVPLDKQITIIDSPSFIVSPLNSSSALALRSPASIEVVKPMEAASAILSQADARQVVLKYTVPGYRNSLEFFTVLAQRRGMHQKGGIPNVEGAAKLLWSEWTGASLAYYCHPPTSWTPPPYFNESIVVDMKSGFNLEELEKNNAQSIRAIKGPHLANSILFQSSGLTNGIIEEKDIHEELPKRKERKQEEREDDKDSDQETVDEEVDENSSGMFAAEETGEALSEETTAGEQSTRSFILDKIIEEDDAYDFSTDYV
20 μM ETO, parent: est. 100
  response (PLA dots per cell): 24
DMSO, parent: est. 13
  response (PLA dots per cell): 5
